± gives the uncertainty stated by the source.
Assay: self-splicing fitness, log relative to wild type (ln ratio); higher = more splicing; Tetrahymena group I intron in knt gene, E. coli kanamycin selection, DiMSum; sequences stand for … in CUCUCU…GGAGGGAAAAGUUAUCAGGCAUGCACCUGGUAGCUAGUCUUUAAACCAAUAGAUUGCAUCGGUUUAAAAGGCAAGACCGUCAAAUUGCGGGAAAGGGGUCAACAGCCGUUCAGUACCAAGUCUCAGGGGAAACUUUGAGAUGGCCUUGCAAAGGGUAUGGUAAUAAGCUGACGGACAUGGUCCUAACCACGCAGCCAAGUCCUAAGUCAACAGAUCUUCUGUUGAUAUGGAUGCAGUUCACAGACUAAAUGUCGGUCGGGGAAGAUGUAUUCUUCUCAUAAGAUAUAGUCGGACCUCUCCUUAAUGGGAGCUAGCGGAUGAAGUGAUGCAACACUGGAGCCGCUGGGAACUAAUUUGUAUGCGAAAGUAUAUUGAUUAGUUUUGGAGUACUCGUGGUCG
In short: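 DiMSum derived fitness as the error-weighted combination of fold changes across replicates, kanamycin versus no kanamycin, normalised to wild type. E. coli BL21(DE3) held the library, which randomised all eight P1ex-region intron nucleotides within the knt kanamycin-resistance gene on pET-22b(+). Six replicate transformations grew overnight at 37°C or 30°C on LB agar with or without 25 μg/mL kanamycin, also containing 100 μg/mL carbenicillin, 50 μM IPTG and 0.2% rhamnose, and pooled colonies were amplicon-sequenced on an Illumina HiSeq 2500.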

Sequence	self-splicing fitness (ln) (30 °C)	self-splicing fitness (ln) (37 °C)
UUUUAGCAAUAUUACGGCUU	-1.98 ± 0.17	-0.826 ± 0.2
UUUUAGCAAUAUUACGGGAA	-1.16 ± 0.16	-1.19 ± 0.13
UUUUAGCAAUAUUACGGGGG	-3.07 ± 0.41	-2.25 ± 0.31
UUUUAGCAAUAUUACGGUAA	-1.94 ± 0.2	-0.884 ± 0.14
UUUUAGCAAUAUUACGUCCA	-1.59 ± 0.22	-0.545 ± 0.19
UUUUAGCAAUAUUACGUUUG	-1.6 ± 0.082	-0.497 ± 0.12
UUUUAGCAAUAUUACGUUUU	-3.49 ± 0.21	-2.22 ± 0.27
